Test [1] has as its system A431, IGR-1, IGR-39 and A2058. As to the kind of experiment: XTT cell viability assay, controls on all cell lines. It counts as cell-based, human. To be noted: for cell viability (XTT), controls: all cell lines, treated with NIR-light. As to the method:
(§1) The human skin epidermoid carcinoma cell line A431 (ATCC: CRL-259), human embryonic kidney (HEK-293T) cell line (ATCC: CRL-11268) and the human melanoma cell line A2058 (ATCC: CRL-11147) were cultured in RPMI-1640 medium. The human melanoma cell line IGR-39 (DSMZ: ACC 239) and IGR-1 (DSMZ: ACC-236) were cultured in DEME medium. All media were supplemented with 2 mM L-glutamine, 10% (v/v) fetal bovine serum (FBS) and 100 U/mL penicillin-streptomycin; the cells were incubated at 37° C. in a 5% CO2 atm. All media and additives were purchased from Life Technologies, Darmstadt, Germany.
(§2) In addition to the in vitro imaging specificity, the phototoxic activity of scFv-SNAP-IR700 and free IR700 were also investigated using cell proliferation and cell apoptosis assays as described previously (9). Briefly, 2×10^4 cells were seeded in 96-well plates and incubated overnight at 37° C. The cells were treated with different concentrations (0, 12.5, 25, 50, 100, 200 and 400) nM of scFv-425-SNAP, IR700 or equivalent concentration of scFv-SNAP-425-IR700 for 3 h at 37° C. in the dark. Toxic control cultures were incubated with 500 μg/mL zeocin instead of the photosensitizer.
Before light irradiation, cells were washed three times with PBS and fresh phenol red free culture media were added to the cells. Light treatment was performed with a Hydrosun® Typ 750 radiator with a water-containing cuvette and an orange filter OG590, with 140 mW/cm^2, dose: 25 J/cm^2a VIS, 76 J/cm^2 wIRA, exposure time: 15 min, and a spectrum in the range of 580-1400 nm (Hydrosun Medizintechnik GmbH, Mülhelm, Germany). […]
(§3) Cell viability was measured using the cell proliferation kit II (XTT®) (Roche, Mannheim Germany) according to the manufacturer's instructions. […] Cell viability was determined colorimetrically by monitoring the reduction of XTT® to formazan at 450 nm absorbance wavelength and 630 nm reference wavelength using the ELx808 absorbance micro-plate reader (BioTek Instruments GmbH, Bad Friedrichshall, Germany).

The test system of test [2] is A431, IGR-1, IGR-39 and A2058. The test can be described thus: Apo-ONE Caspase-3/7 apoptosis assay, controls. To be noted: photosensitizer or fusion protein alone. The class given is cell-based, human. As to the method: as §2
(§4) Before light irradiation, cells were washed three times with PBS and fresh phenol red free culture media were added to the cells. […]
(§5) Next it was determined whether scFv-SNAP-IR700 has the ability to induce apoptosis using the Apo-ONE® Homogeneous Caspase-3/7 assay (Promega, Mannheim, Germany). […] The activities of caspase-3 and -7 enzymes were analyzed in cell lysates by measuring the fluorescence signal at 485 nm excitation wavelength and 535 nm emission wavelength using the ELISA plate reader ELx808 (Bio-TEK, Bad Friedrichschall, Germany).

Test [3] relates to EGFR-expressing cell lines (A431, IGR1 and IGR-39). As to the kind of experiment: Confocal microscopy binding and internalization. It counts as cell-based, human. The protocol: (§6) To further monitor the targeted activity of fusion protein, Opera® High Content Screening System (PerkinElmer, Rodgau, Germany) was used to determine the binding and internalization properties of labeled fusion proteins on skin cancer cells. Cells were prepared as described for flow cytometry analysis. Binding activity was analyzed by incubating the cells with labeled fusion proteins for 30 min on ice, while receptor mediate internalization activities was monitored by incubating the cells with the labeled fusion proteins for 2 h at 37° C.

Test [4] concerns EGFR low expressing cell line (A2058). The test can be described thus: Confocal microscopy binding and internalization. The class given is cell-based, human. The following applies: same conditions. As to the method:
as §6

Test [5] concerns EGFR^+ skin carcinoma cell lines (A431, IGR1 and IGR-39). The test can be described thus: Flow cytometry binding analysis. On the set-up: species or system human. To be noted: EGFR+ skin cancer cells; 30 min on ice. The protocol: Flow cytometry analysis was performed to determine the binding properties of labeled scFv-SNAP-tag fusion protein against skin cancer cell lines. Approximately 4×10^5 cells each of the EGFR-positive skin cancer cell lines IGR-39, IGR-1 and A431 as well as of the EGFR low expressing cell line A2058 were incubated with 0.5 μg of labeled proteins for 30 min on ice. After washing the cells twice with 1.8 mL of PBS in a conventional cell washer, fluorescence signals were detected using a FACSCalibur® device and CellQuest® software (Becton & Dickinson, Heidelberg, Germany) using a 633 nm laser source.
A general note: In flow cytometry, cells or beads pass a laser one at a time.

Test [6] deals with A2058 cells (EGFR low expressing). As to the kind of experiment: XTT cell viability assay after light treatment. To be noted: same protocol with light, up to 400 nM. The class given is cell-based, human. As to the method: as §1
(§7) In addition to the in vitro imaging specificity, the phototoxic activity of scFv-SNAP-IR700 and free IR700 were also investigated using cell proliferation and cell apoptosis assays as described previously (9). Briefly, 2×10^4 cells were seeded in 96-well plates and incubated overnight at 37° C. […]
as §3

The subject of test [7] is EGFR low expressing cells (A2058). As to the kind of experiment: Apo-ONE Caspase-3/7 apoptosis assay. It counts as cell-based, human. To be noted: same conditions. As to the method:
as §2, §4, §5

For test [8], the system named is cells expressing EGFR (A431, IGR-1, IGR-39). As to the kind of experiment: Apo-ONE Caspase-3/7 apoptosis assay. The following applies: all cells expressing EGFR; with light. It counts as cell-based, human. The protocol:
as §2, §4, §5

Test [9] relates to EGFR-expressing skin cancer cell lines (A431, IGR-1, IGR-39). The test can be described thus: XTT cell viability assay, EGFR-expressing lines together. The class given is cell-based, human. To be noted: with light 580-1400 nm; 0-400 nM. As to the method: as §1, §7, §3
(In general: Tetrazolium assays rely on reduction of a dye to a coloured formazan, in cell work by metabolically active cells.)

Consider `C[Si](C)(CCC[N+](CCCS(=O)(=O)[O-])(CCCS(=O)(=O)[O-])CCCS(=O)(=O)[O-])O[Si]1(O[Si](C)(C)CCC[N+](CCCS(=O)(=O)[O-])(CCCS(=O)(=O)[O-])CCCS(=O)(=O)[O-])n2c3c4ccccc4c2N=C2N=C(N=c4c5ccccc5c(n41)=NC1=NC(=N3)c3ccccc31)c1cccc(OCCCOC(=O)NCCCCCC(=O)ON3C(=O)CCC3=O)c12.[Na+].[Na+].[Na+].[Na+]` (stereo not shown) [IR700, IRDye®700DX N-hydroxysuccinimide ester, reference compound], for which, in [1], the “cell viability (XTT), controls” value was “unaffected”. Also, the “caspase activities, controls” value in test [2] is listed as “no significant elevation of caspase activities”.
“scFv-425-SNAP-tag: unlabeled fusion protein of anti-EGFR scFv-425 (SEQ ID No. 1) and SNAP-tag (SEQ ID No. 2)”: the “cell viability (XTT), controls” value in [1] is “unaffected”. Further, the “caspase activities, controls” value in test [2] is reported as “no significant elevation of caspase activities”.

B1: scFv-425-SNAP-647: scFv-425-SNAP-tag fusion protein conjugated with BG-Alexa-647 dye, used for flow cytometry and confocal microscopy (conjugate)
scFv: MAQVQLQQSGAELVKPGASVKLSCKASGYTFTSHWMHWVKQRAGQGLEWIGEFNPSNGRTNYNEKFKSKATLTVDKSSSTAYMQLSSLTSEDSAVYYCASRDYDYDGRYFDYWGQGTTVTVSSGGGGSGGGGSGGGGSDIELTQSPAIMSASPGEKVTMTCSASSSVTYMYWYQQKPGSSPRLLIYDTSNLASGVPVRFSGSGSGTSYSLTISRMEAEDAATYYCQQWSSHIFTFGSGTELEIKRMDKDCEMKRTTLDSPLGKLELSGCEQGLHEIKLLGKGTSAADAVEVPAPAAVLGGPEPLMQATAWLNAYFHQPEAIEEFPVPALHHPVFQQESFTRQVLWKLLKVVKFGEVISYQQLAALAGNPAATAAVKTALSGNPVPILIPCHRVVSSSGAVGGYEGGLAVKEWLLAHEGHRLGKP
modifications: left off: small tags and cut ends
Consider B1, for which the “binding, cell membrane staining (confocal)” value in test [3] (30 min incubation at 4° C.) is on record as “homogeneous cell membrane staining”. In addition, the “internalization (confocal)” value in [3] (max. 2 h of incubation at 37° C.) is reported as “exclusively taken up”. In test [4], the “binding/internalization signal (confocal)” value is “no signal was detected”. Moreover, the “labeling of cells (flow cytometry)” value in [5] was “rapid and efficient labeling”.

B2: scFv-425-SNAP-IR700: IR700 photosensitizer (via BG-PEG24 linker) conjugated to anti-EGFR single-chain variable fragment scFv-425 fused to SNAP-tag (conjugate)
scFv: B1 scFv
modifications: left off: small tags and cut ends
notes: IR700 photosensitizer (via BG-PEG24 linker) conjugated to anti-EGFR single-chain variable fragment scFv-425 fused to SNAP-tag
As for B2, the “cell viability (XTT)” value in [6] was “no significant reduction in cell viability”. For the same molecule, the “cell viability (XTT) without light” value in [1] (without any light treatment) was “no toxic effects”. The figures for the “caspase-3 and caspase-7 activities (apoptosis)” value in test [7] and in test [8] were “did not have a negative impact” and “triggers apoptosis”, respectively. For the same molecule, the “viability of EGFR+ cells (XTT)” value in test [9] is on record as “reduced significantly in a concentration-dependent manner”.
